Absorbance and 405 nm (Found Value - Blank) data for one substance are collected here from patent US20100255578A1.

In test [1] the target is H296-H296 (modified fibronectin fragment in which two H-296's are connected). The test can be described thus: ELISA as in Example 34; H296-H296 coated at 25 ug/mL in PBS; HRP-labeled FNH3-8. For orientation: ELISA stands for enzyme-linked immunosorbent assay.
The target in the next test is H296-H296-HT. The test can be described thus: ELISA; H296-H296-HT coated at 1 ug/mL; HRP-labeled FNH3-8, ABTS; blank subtracted.
H296-H296-HT, sequence (chain, as listed by the source limits assumed): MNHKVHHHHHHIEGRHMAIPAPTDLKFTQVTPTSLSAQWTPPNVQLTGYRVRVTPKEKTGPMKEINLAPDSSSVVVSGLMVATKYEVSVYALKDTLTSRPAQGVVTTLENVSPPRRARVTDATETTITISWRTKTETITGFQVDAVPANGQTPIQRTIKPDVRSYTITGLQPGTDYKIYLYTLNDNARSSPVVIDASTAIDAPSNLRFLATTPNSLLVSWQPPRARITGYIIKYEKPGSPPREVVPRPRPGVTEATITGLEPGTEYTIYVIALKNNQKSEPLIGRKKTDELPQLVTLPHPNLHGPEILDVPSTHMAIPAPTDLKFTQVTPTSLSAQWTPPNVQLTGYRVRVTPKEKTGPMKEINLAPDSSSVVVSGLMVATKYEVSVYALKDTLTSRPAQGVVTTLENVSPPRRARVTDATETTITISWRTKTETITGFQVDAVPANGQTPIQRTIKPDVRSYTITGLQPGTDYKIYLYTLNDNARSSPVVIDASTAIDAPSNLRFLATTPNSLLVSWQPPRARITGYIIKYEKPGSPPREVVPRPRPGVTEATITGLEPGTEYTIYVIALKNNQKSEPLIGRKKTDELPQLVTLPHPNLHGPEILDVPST

With “FNH3-8 antibody (manufactured by TAKARA BIO INC.) labeled with HRP”, in test [1], the absorbance at 405 nm was determined as 2.02. This substance came in with a 405 nm (Found Value - Blank) with H296-H296-HT of 0.186.
